According to patent US20210355180A1:

What was measured:
[1] = molecular target: N-terminally biotinylated human Aβ1-40 peptide (human); assay: ELISA, ABD periplasm captured on anti-ABD, 2 nM biotinylated hAβ1-40
[2] = molecular target: N-terminally biotinylated human Aβ1-40 peptide (human); assay: SPR (Biacore 2000), periplasm diluted 15x over hAβ1-40 surface (blank control)

Sequence of N-terminally biotinylated human Aβ1-40 peptide (human) (peptide, as listed by the source): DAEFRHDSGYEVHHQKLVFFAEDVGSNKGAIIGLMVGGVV

ELISA response (absorbance 450 nm) [1]: 0.063 AU
Response RU [2]: 2 RU
Substance: ABD (albumin binding domain GA3 from streptococcal Protein G), periplasm control (from UniProt P19909 254-299)
